The target in this test is GFP-tagged T759A mutant DIAPH1 (murine pEGFP-mDia T751A) (murine) (UniProt O08808). The test is described as follows: co-IP.
Chain of UniProt O08808 (O08808 whole entry T751A): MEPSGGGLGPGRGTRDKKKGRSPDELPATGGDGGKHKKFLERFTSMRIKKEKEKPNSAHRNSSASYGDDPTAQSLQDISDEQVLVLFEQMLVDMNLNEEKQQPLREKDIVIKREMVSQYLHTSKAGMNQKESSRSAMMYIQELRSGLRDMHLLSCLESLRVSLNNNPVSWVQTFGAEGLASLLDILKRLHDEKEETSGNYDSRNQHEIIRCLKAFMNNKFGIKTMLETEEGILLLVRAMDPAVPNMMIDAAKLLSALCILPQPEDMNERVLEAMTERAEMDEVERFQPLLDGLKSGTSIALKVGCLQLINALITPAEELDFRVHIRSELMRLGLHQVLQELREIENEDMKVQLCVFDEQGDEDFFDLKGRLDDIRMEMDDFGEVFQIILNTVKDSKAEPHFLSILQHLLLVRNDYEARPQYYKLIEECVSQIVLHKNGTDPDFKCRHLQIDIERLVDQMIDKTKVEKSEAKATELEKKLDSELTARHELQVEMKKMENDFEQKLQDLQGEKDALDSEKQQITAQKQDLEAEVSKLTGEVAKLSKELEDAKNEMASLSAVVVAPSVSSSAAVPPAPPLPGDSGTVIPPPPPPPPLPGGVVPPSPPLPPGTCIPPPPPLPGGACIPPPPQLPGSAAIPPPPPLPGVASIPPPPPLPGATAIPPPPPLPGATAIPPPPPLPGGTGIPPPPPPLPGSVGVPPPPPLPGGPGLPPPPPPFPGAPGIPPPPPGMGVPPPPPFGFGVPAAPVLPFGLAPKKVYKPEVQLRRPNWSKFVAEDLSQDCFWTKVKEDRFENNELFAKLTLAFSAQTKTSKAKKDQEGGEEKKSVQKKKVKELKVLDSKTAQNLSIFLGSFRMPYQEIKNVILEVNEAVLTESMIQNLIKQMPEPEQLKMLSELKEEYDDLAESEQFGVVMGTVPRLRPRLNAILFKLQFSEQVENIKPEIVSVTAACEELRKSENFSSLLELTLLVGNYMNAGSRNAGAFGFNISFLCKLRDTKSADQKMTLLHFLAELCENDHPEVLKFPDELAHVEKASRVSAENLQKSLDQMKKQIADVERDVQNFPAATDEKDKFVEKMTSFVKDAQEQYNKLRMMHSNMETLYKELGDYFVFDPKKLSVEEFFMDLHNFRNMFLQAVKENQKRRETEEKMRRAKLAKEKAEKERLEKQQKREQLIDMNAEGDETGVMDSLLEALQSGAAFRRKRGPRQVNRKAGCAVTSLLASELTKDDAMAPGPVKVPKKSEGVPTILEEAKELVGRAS

Substance “Actin, β (from UniProt P60709 1-375) (natural protein)” had a percent decrease of the co-precipitate against wild type of 86%.

In turn, “Kinesin heavy chain (from UniProt P33176 1-963) (natural protein)” came in with a percent decrease of the co-precipitate against wild type of 65%.
